Results published in paper PMC3702631 (Structure (London, England : 1993), 2013).
Where a chain is given by its changes, count along the chain named. In names and notes the source's numbering stands.

B1: mouse TBK1 residues 1-657, K38A (GST tag cleaved) (domain or fragment, UniProt Q9WUN2 1-657, looked up)
chain: MQSTSNHLWLLSDILGQGATANVFRGRHKKTGDLYAVAVFNNISFLRPVDVQMREFEVLKKLNHKNIVKLFAIEEETTTRHKVLIMEFCPCGSLYTVLEEPSNAYGLPESEFLIVLRDVVGGMNHLRENGIVHRDIKPGNIMRVIGEDGQSVYKLTDFGAARELEDDEQFVSLYGTEEYLHPDMYERAVLRKDHQKKYGATVDLWSVGVTFYHAATGSLPFRPFEGPRRNKEVMYKIITGKPSGAISGVQKAENGPIDWSGDMPLSCSLSQGLQALLTPVLANILEADQEKCWGFDQFFAETSDVLHRMVIHVFSLQHMTAHKIYIHSYNTAAVFHELVYKQTKIVSSNQELIYEGRRLVLELGRLAQHFPKTTEENPIFVTSREQLNTVGLRYEKISLPKIHPRYDLDGDASMAKAVTGVVCYACRTASTLLLYQELMRKGVRWLVELVKDDYNETVHKKTEVVITLDFCIRNIEKTVKVYEKLMKVNLEAAELGEISDIHTKLLRLSSSQGTIESSLQDISSRLSPGGLLADTWAHQEGTHPRDRNVEKLQVLLNCITEIYYQFKKDKAERRLAYNEEQIHKFDKQKLYYHATKAMSHFSEECVRKYEAFKDKSEEWMRKMLHLRKQLLSLTNQCFDIEEEVSKYQDYTNELQET
B2: mouse TBK1 residues 1-657, S172A (GST tag cleaved) (domain or fragment, UniProt Q9WUN2 1-657, looked up)
chain: B1 chain with A38K, S172A

Biological target: the molecule itself
Experiment: SEC

Protein	stoichiometry N
B1	2
B2	2
